In assay [1] the target is T1, human B-cell maturation antigen (BCMA) on cells (human, UniProt Q02223 1-184).
T1 construct: Recombinant on HEK293 or K562 cells, or endogenous on cell lines (H929, RPMI 8226, OPM2, MM1S, Daudi); also called hBCMA; huBCMA
T1 chain: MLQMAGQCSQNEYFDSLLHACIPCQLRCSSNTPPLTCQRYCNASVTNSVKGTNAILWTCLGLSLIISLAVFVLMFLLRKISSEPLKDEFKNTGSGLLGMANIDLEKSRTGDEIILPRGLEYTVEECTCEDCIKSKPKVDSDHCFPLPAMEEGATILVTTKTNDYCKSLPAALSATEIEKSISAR
Kind of assay: flow cytometry on BCMA-expressing HEK293 cells vs control cells, crude lysate or bacterial supernatant; clone listed in Table E2. How it is done:
Specific binding of resulting scFv clones to BCMA-expressing HEK293 cells, as compared to control cells not expressing BCMA, was assessed by flow cytometry either with in vitro translated crude cell lysate or with bacterially-produced supernatant.
A general note: Flow cytometry measures light scatter and fluorescence of single cells or particles in a stream.

Assay [2] concerns the target T2, BCMA-Fc (soluble human BCMA fused at its C-terminus to an Fc region of IgG) (human, UniProt Q02223 1-54).
T2 construct: also called hBCMA-Fc; hBMCA-Fc
T2 sequence: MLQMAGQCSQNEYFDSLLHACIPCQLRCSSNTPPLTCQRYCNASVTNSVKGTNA
Kind of assay: flow cytometry, T cells transduced with O/SSE construct, CD4 gate, recombinant BCMA-Fc (rBCMA) staining against surrogate marker. How it is done:
(§1) Lentiviral constructs containing anti-BCMA CAR-encoding polynucleotides with starting and optimized sequences, respectively, as described in Example 3, were transduced into T cells and transduced cells were analyzed for transduction (based on expression of a surrogate marker) and for CAR expression based on binding to recombinant BCMA-Fc fusion protein by flow cytometry.

Assay [3] concerns the target T2, BCMA-Fc (soluble human BCMA fused at …). Kind of assay: flow cytometry, T cells transduced with O/SSE construct, CD8 gate, recombinant BCMA-Fc (rBCMA) staining against surrogate marker. The method, then:
as §1

The target is the same in assay [4]. Kind of assay: flow cytometry, T cells transduced with Non-SSE construct, CD8 gate, recombinant BCMA-Fc (rBCMA) staining against surrogate marker. How it is done:
as §1

Assay [5] shares this target. In words: flow cytometry, T cells transduced with Non-SSE construct, CD4 gate, recombinant BCMA-Fc (rBCMA) staining against surrogate marker. How it is done:
as §1

B1: BCMA-45 scFv (scFv)
scFv: QVQLVQSGGGLVQPGRSLRLSCTASGFTFGDYAMSWFRQAPGKGLEWVGFIRSKAYGGTTEYAASVKGRFTISRDDSKSIAYLQMNSLKTEDTAVYYCAAWSAPTDYWGQGTLVTVSSGGGGSGGGGSGGGGSAIRMTQSPSSLSASVGDRVTITCRASQGIGRSLAWYKQKPGGVPQLLIHDASSLRSGVPSRFSGSGSGTEFTLTISGVQSEDSATYHCQQLNGYPWTFGQGTKVDIK
For the molecule B1, the binding result in assay [1] is recorded as “binds”.

B2: BCMA-25-LS CAR (other)
chain: EVQLVQSGGGLVQPGRSLRLSCTASGFTFGDYAMSWFRQAPGKGLEWVGFIRSKAYGGTTEYAASVKGRFTISRDDSKSIAYLQMNSLKTEDTAVYYCAAWSAPTDYWGQGTLVTVSSGGGGSGGGGSGGGGSDIQMTQSPAFLSASVGDRVTVTCRASQGISNYLAWYQQKPGNAPRLLIYSASTLQSGVPSRFRGTGYGTEFSLTIDSLQPEDFATYYCQQSYTSRQTFGPGTRLDIKESKYGPPCPPCPAPPVAGPSVFLFPPKPKDTLMISRTPEVTCVVVDVSQEDPEVQFNWYVDGVEVHNAKTKPREEQFQSTYRVVSVLTVLHQDWLNGKEYKCKVSNKGLPSSIEKTISKAKGQPREPQVYTLPPSQEEMTKNQVSLTCLVKGFYPSDIAVEWESNGQPENNYKTTPPVLDSDGSFFLYSRLTVDKSRWQEGNVFSCSVMHEALHNHYTQKSLSLSLGKMFWVLVVVGGVLACYSLLVTVAFIIFWVKRGRKKLLYIFKQPFMRPVQTTQEEDGCSCRFPEEEEGGCELRVKFSRSADAPAYQQGQNQLYNELNLGRREEYDVLDKRRGRDPEMGGKPRRKNPQEGLYNELQKDKMAEAYSEIGMKGERRRGKGHDGLYQGLSTATKDTYDALHMQALPPR
notes: Chimeric antigen receptor; signal peptide left out; also called BCMA-25-LS-O/SSE CAR; BCMA-25-L CAR
With B2, the “% of cells in Q1 (rBCMA+ marker-)” value worked out at 2.36% in assay [2], 1.37% in assay [3], 0.37% in assay [4] and 0.31% in assay [5]. Moreover, the “% of cells in Q3 (rBCMA- marker+)” value came out at 10.4% in assay [2], 17.5% in assay [3], 29.4% in assay [4] and 30.5% in assay [5]. Besides, the “% of cells in Q4 (rBCMA- marker-)” value in assay [2] came out at 22.3%; in assay [3], 19.4%; in assay [4] it was 52.5%; in assay [5], 51.3%.

B3: BCMA-49 scFv (scFv)
scFv: QVQLVESGGGLVKPGGSLRLSCAASGFTFSDYYMSWIRQAPGKGLEWVSYISSSGSTIYYADSVKGRFTISRDNAKNSLYLQMNSLRAEDTAVYYCAKVDGPPSFDIWGQGTMVTVSSGGGGSGGGGSGGGGSLPVLTQPPSVSVAPGKTARITCGGDQIGRKSVHWYQQKPGQAPVLVMSYDSDRPSGIPERFSGSNSGNTATLTISRVEAGDEAAYYCQVWDSSTGQYVVFGGGTKLTVL
On to B3, for which the binding result in assay [1] is recorded as “binds”.

B4: BCMA-36 scFv (scFv)
scFv: QVQLVQSGGGLVKPGGSLRLSCAASGFTFSDYYMSWIRQAPGKGLEWVSYISSSGSTIYYADSVKGRFTISRDNAKNSLYLQMNSLRAEDTAVYYCARVDGDYVDDYWGQGTLVTVSSGGGGSGGGGSGGGGSQSVLTQEPSLTVSPGETVTLTCGSSTGPVTSAHSPSWFQKKPGQAPTTLIYETTNRHSWTPARFSGSLLGGKAALTLSGAQPEDEADYYCLLSSGDARMVFGGGTKLTVL
In the case of B4, the binding result in assay [1] is reported as “binds”.

B5: BCMA-48 scFv (scFv)
scFv: EVQLVESGGGLVKPGGSLRLSCAASGFTFSDYYMSWIRQAPGKGLEWVSYISSSGSTIYYADSVKGRFTISRDNAKNSLYLQMNSLRAEDTAVYYCAKVDGPPSFDIWGQGTMVTVSSGGGGSGGGGSGGGGSQPVLTQPPSVSVAPGKTATITCGGNNIGSKSVHWYQRKPGQGPVVVIQYDTDRPSGIPERFSGSNSGNTATLTISRVEAGDEGDYYCQVWDSSSDHWVFGGGTKLTVL
On to B5, for which the binding result in assay [1] is recorded as “binds”.

B6: BCMA-51 scFv (scFv)
scFv: EVQLVQSGGGLVQPGRSLRLSCTASGFTFGDYAMSWFRQAPGKGLEWVGFIRSKAYGGTTEYAASVKGRFTISRDDSKSIAYLQMNSLKTEDTAVYYCAAWSAPTDYWGQGTLVTVSSGGGGSGGGGSGGGGSAIQLTQSPSTLSASVGDRVAITCRASQNIGDWLAWYQQKPGKAPKLLIFGASILESGVPSRFSGSGSGTDFTLTISSLQPEDVAVYYCQKYDGAPPWTFGQGTKVEIK
In the case of B6, the binding result in assay [1] is “binds”.

B7: BCMA-37 scFv (scFv)
scFv: EVQLVQSGGGLVKPGGSLRLSCAASGFTFSDYYMSWIRQAPGKGLEWVSYISSSGSTIYYADSVKGRFTISRDNAKSSLYLQMNSLRAEDTAVYYCARVDGDYVDDYWGQGTLVTVSSGGGGSGGGGSGGGGSQLVLTQEPSLTVSPGGTVTLTCGSSTGAVTNGHSPYWFQQKPGQAPRTLIYDTTNRHSWTPARFSGSLLGGKAALTLSGAQPEDEAEYYCSLSHAGDRVFFGGGTKLTVL
Consider B7, for which the binding result in assay [1] is “binds”.

B8: BCMA-42 scFv (scFv)
scFv: EVQLLESGGGLVQPGRSLRLSCTASGFTFGDYAMSWFRQAPGKGLEWVGFIRSKAYGGTTEYAASVKGRFTISRDDSKSIAYLQMNSLKTEDTAVYYCAAWSAPTDYWGQGTLVTVSSGGGGSGGGGSGGGGSDIQMTQSPSLVSASVGDRVTITCRASQGIGNGLAWYQQKPGKAPKLLLFAASRLESGVPSRFSGSRSGTDYTLTISSLQPEDVATYYCQQYVEDALTFGGGTKVDIK
In the case of B8, in assay [1], the binding result is “binds”.

B9: BCMA-34 scFv (scFv)
scFv: TGQLVQSGGGLVQPGRSLRLSCAASGFTFDDYAMHWVRQAPGKGLEWVSGISWNSGSIGYADSVKGRFTISRDNAKNSLYLQMNSLRAEDTAVYYCARDLGPDYDPDAFDIWGQGTMVTVSSGGGGSGGGGSGGGGSEIVMTQSPATLSLSPGDRATLSCRASQSISNYLAWYQQKPGQAPRLLIYDASNRATGIPARFSGSGSGTDFTLTISSLEPEDFAVYYCQQRSNWPPYTFGQGTKLDIK
On to B9, for which the binding result in assay [1] was “binds”.

B10: BCMA-41 scFv (scFv)
scFv: QVQLVQSGGGLVKPGGSLRLSCAASGFTFSDYYMSWIRQAPGKGLEWVSYISSSGNTIYYADSVKGRFTISRDNAKNSLYLQMNSLRAEDTAVYYCAKVDGDYVDDYWGQGTLVTVSSGGGGSGGGGSGGGGSQPVLTQPPSVSGTPGQRVTIPCSGSSSNIGGNSVDWFQEVPGTAPKLLIYANDRRPSGVPDRFSGTKSGTSASLAIRGLQSDDDAHYYCESWDDALNGHVFGGGTKLTVL
For the molecule B10, the binding result in assay [1] is reported as “binds”.

B11: BCMA-38 scFv (scFv)
scFv: QVQLVQSGGGLVKPGGSLRLSCAASGFTFSDYYMSWIRQAPGKGLEWVSYISSSGSTIYYADSVKGRFTISRDNAKNSLYLQMNSLRAEDTAVYYCARVDGDYVDDYWGQGTLVTVSSGGGGSGGGGSGGGGSQAVLTQEPSLTVSPGGTVTLTCGSSTGAVTNGHSPYWFQQKPGQAPRTLIYDTNNRHSWTPARFSGSLLGGKAALTLSGAQPEDEADYFCLLSYSDARLAFGGGTKLTVL
As to B11, the binding result in assay [1] was “binds”.

B12: BCMA-35 scFv (scFv)
scFv: EVQLVQSGGGLVKPGGSLRLSCAASGFTFSDYYMSWIRQAPGKGLEWVSYISSSGSTIYYADSVKGRFTISRDNAKNSLYLQMNSLRAEDTAVYYCARVDGDYDDYWGQGTLVTVSSGGGGSGGGGSGGGGSNFMLTQPPSVSVAPGQTARITCGANNIGSKSVHWYQQKPGQAPMLVVYDDDDRPSGIPERFSGSNSGNTATLTISGVEAGDEADYFCHLWDRSRDHYVFGTGTKLDIK
On to B12, for which the binding result in assay [1] is on record as “binds”.

Values taken from US20260109774A1 (JUNO THERAPEUTICS, published 2026).
